Where no end group is shown, it is not given here. The star is where a group is joined. FITC = O=C1OC2(c3ccc(O)cc3Oc3cc(O)ccc32)c2ccc(NC(=S)*)cc21
T1: S. cerevisiae Csm1 globular domain (residues 69–190 of 190), untagged (S. cerevisiae, UniProt P25651 69-190)
T1 construct: S. cerevisiae Csm1, globular domain, residues 69-190 of 190; also called Sc Csm1^69–190; untagged Csm1
T1 sequence (looked up): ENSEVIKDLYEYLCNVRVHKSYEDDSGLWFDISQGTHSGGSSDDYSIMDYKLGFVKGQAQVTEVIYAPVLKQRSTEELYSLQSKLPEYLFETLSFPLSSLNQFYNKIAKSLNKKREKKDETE

T2: S. pombe Csm1 C-terminal globular domain (residues 125–261), wild type (S. pombe, UniProt O13684 125-261)
T2 construct: S. pombe Csm1 (also called Pcs1), C-terminal globular domain, residues 125-261; also called S. pombe Csm1^125–261; Sp Csm1; source: E. coli Rosetta2 (DE3) pLysS, purified
T2 sequence (looked up): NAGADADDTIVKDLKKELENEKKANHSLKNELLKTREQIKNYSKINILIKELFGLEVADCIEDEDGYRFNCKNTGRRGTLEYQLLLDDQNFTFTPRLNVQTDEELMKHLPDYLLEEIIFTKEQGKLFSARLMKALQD

B1: His6-MBP-fused S. cerevisiae Dsn1 Box 1-2-3 region (residues 71–110 of 576) (domain or fragment, UniProt P40568 71-110, looked up)
chain: DLKFKRHKNKHIQGFPTLGERLDNLQDIKKAKRVENFNSS
notes: S. cerevisiae Dsn1, Box 1-2-3 region, residues 71-110 of 576; also called Sc Dsn1^71–110; His6-MBP-fused Dsn1 fragment; source: E. coli Rosetta2 (DE3) pLysS, purified
B2: Sp Mis13 5–17 peptide (Dsn1-N/Box 1), fluorescein isothiocyanate-labelled (peptide)
peptide: {FITC}-PEEQEGFVFVRKG
notes: S. pombe Mis13 (Dsn1), Dsn1-N/Box 1 region, residues 5-17; also called Sp Dsn1-N/Box 1 (residues 5–17); S. pombe Mis13 Dsn1-N region

Assays:
[1] = target: T1, S. cerevisiae Csm1 globular domain …; assay: ITC; Microcal ITC 200; His6-MBP-fused Dsn1 fragments at 1–1.5 mM injected into a sample cell containing untagged Csm1 at 100–200 μM; protein buffer (20 mM Tris-HCl pH 7.5, 5% glycerol) plus 300 mM NaCl and 1 mM dithiothreitol; settings: both partners purified
[2] = target: T2, S. pombe Csm1 C-terminal globular …; assay: fluorescence polarisation; Csm1 125–261 at 20 nM-250 μM with 20 nM FITC-labelled Mis13 5–17 peptide; 20 mM Tris 7.5, 300 mM NaCl, 10% glycerol, 0.01% NP-40, 1 mM DTT; triplicate; single-site binding model; settings: both partners purified

Binder	Kd [1] [µM]	Kd [2] [µM]
B1	12	
B2		22
